Consider 8 molecules from patent US7067117 (CAMBRIDGE UNIVERSITY TECHNICAL SERVICES, dated 2006).

Where “and” joins values, the source holds several entries; their conditions need not be identical. Identical values can stand only once. Like-named read-outs stand apart in the source and are kept apart here. Square brackets hold non-standard residues; d marks the D form. Ends that are not written are not given here. Bounds are passed on as bounds.

In assay [1] the target is chemokine receptors on THP-1 cells. In words: cell-based or functional assay.
Assay [2] deals with T1, Duffy Antigen Receptor for Chemokines (DARC) (human) (UniProt Q16570).
T1 sequence (looked up): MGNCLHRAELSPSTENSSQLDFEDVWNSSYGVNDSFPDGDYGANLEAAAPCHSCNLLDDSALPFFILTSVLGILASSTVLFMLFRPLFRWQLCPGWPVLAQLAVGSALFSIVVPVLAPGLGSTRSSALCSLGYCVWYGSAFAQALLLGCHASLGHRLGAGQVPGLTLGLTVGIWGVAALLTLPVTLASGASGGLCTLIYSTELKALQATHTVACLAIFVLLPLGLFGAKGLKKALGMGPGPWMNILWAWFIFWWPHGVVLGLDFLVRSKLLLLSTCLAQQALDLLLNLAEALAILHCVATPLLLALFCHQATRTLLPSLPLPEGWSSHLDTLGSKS
In words: DARC binding; given as 'affinity constant'.

The target of assay [3] is chemokine receptors on THP-1 cells. In words: binding to chemokine receptors on THP-1 cells; given as 'association constant'.
Assay [4] deals with T1, Duffy Antigen Receptor for Chemokines (DARC) (human). The assay is described as follows: estimated ka for binding to red blood cells divided by inhibitory ED50 (THP-1 migration).
Assay [5] deals with T2, Duffy Antigen Receptor for Chemokines (DARC) (human, UniProt Q16570 1-336).
T2 construct: whole, on cells
T2 sequence (looked up): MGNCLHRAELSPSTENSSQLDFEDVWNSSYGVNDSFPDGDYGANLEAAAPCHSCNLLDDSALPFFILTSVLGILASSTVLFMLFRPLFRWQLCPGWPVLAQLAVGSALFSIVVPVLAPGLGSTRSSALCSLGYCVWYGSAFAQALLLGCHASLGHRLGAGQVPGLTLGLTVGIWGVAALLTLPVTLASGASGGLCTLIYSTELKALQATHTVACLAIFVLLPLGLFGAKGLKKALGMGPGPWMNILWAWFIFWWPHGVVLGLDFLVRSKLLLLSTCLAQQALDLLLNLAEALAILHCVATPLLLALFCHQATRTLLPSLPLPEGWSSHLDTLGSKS
In words: DARC binding on red blood cells. As for the experimental part: (§1) To overcome this difficulty, the ka for association of DARC with peptide 3(1–12)[MCP-1] (SEQ ID NO:1) and peptide 2(1–15)[MCP-1] […] After binding has reached equilibrium (30 minutes at 37° C.), the cells are separated from the unbound label by centrifugation for 5 minutes through a sucrose gradient. Counts associated with the cells are then determined by gamma-counting scintigraphy. […] Furthermore, Scatchard analysis confirms the presence of a single high affinity binding site with 500–1000 copies per cell, consistent with the known properties of DARC.

The target of assay [6] is T2, Duffy Antigen Receptor for Chemokines …. The assay is described as follows: Duffy binding. The protocol:
as §1

For assay [7], the target named is chemokine receptors on THP-1 cells. The assay is described as follows: cell-based or functional assay. This is another data set of the same source.
In assay [8] the target is T3, Duffy Antigen Receptor for Chemokines (DARC) (human, UniProt Q16570 1-336).
T3 chain: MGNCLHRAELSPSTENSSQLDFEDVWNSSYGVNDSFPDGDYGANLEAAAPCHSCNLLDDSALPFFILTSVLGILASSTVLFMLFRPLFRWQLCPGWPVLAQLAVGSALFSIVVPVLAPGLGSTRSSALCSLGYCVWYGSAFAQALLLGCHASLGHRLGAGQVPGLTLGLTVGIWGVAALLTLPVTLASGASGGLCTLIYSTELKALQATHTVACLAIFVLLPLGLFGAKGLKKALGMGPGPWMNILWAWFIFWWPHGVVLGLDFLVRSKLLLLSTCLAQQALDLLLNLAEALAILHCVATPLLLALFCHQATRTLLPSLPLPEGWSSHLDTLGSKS
The assay is described as follows: DARC binding.

Assay [9] addresses T2, Duffy Antigen Receptor for Chemokines …. In words: competition binding analysis using red blood cells. The protocol:
as §1

Assay [10] shares this target. The assay is described as follows: ka for binding to red blood cells divided by ka for binding to THP-1 cells.
Assay [11] has as its target chemokine receptors on THP-1 cells. In words: estimated ka for binding to THP-1 cells (competition binding analysis), printed under 'AVERAGE ED50 (µM)'.
In assay [12] the target is T2, Duffy Antigen Receptor for Chemokines …. The assay is described as follows: DARC binding. As for the experimental part:
as §1

For assay [13], the target named is chemokine receptors on the surface of Jurkat cells. In words: biotinylated peptide binding to Jurkat cells.
Assay [14] addresses chemokine receptors on THP-1 cells. In words: biotinylated derivative mixed with THP-1 cells.
In assay [15] the target is T4, Duffy Antigen Receptor for Chemokines (DARC) (human), Q16570.
T4 chain: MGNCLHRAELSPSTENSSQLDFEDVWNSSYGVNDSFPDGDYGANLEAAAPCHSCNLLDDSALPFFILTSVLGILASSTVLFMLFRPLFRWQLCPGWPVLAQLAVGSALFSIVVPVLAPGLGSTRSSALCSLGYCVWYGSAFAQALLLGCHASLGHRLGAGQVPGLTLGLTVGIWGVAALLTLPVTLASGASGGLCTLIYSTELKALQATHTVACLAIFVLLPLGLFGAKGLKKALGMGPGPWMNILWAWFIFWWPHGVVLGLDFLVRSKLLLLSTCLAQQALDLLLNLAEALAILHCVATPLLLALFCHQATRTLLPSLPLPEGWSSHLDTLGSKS
In words: estimated ka for binding to red blood cells divided by average inhibitory ED50 (THP-1 migration). Particulars: remark: other sources report otherwise.

Assay [16] concerns the target chemokine receptors on THP-1 cells. The assay is described as follows: cell-based or functional assay. The source holds these as a separate data set.
In assay [17] the target is T1, Duffy Antigen Receptor for Chemokines (DARC) (human). The assay is described as follows: ka for red blood cells divided by ED50.
The target is the same in assay [18]. The assay is described as follows: estimated ka for binding to red blood cells divided by average inhibitory ED50 (THP-1 migration).
The target in assay [19] is T4, Duffy Antigen Receptor for Chemokines …. In words: Duffy binding.
Assay [20] concerns the target CCR5, P51681. The assay is described as follows: method not described; given as 'affinity constant'.
The target of assay [21] is T5, CXCR4, P61073.
T5 chain: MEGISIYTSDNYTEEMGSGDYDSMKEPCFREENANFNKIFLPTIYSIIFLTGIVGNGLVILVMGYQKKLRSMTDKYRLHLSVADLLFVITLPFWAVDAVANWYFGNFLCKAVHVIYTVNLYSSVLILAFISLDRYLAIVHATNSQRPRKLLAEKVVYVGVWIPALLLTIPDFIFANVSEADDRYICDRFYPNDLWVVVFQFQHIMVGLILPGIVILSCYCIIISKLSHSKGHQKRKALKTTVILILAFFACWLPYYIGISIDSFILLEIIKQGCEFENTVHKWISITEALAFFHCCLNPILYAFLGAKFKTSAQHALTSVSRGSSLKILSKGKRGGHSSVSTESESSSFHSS
The assay is described as follows: method not described; given as 'affinity constant'.

The target of assay [22] is T4, Duffy Antigen Receptor for Chemokines …. In words: Duffy binding, LRD against LFL peptide 2(1-15)[MCP-1].
Assay [23] has the same target. In words: DARC binding. The note with it: modification not given.

CCR5, P51681, sequence (P51681 whole entry): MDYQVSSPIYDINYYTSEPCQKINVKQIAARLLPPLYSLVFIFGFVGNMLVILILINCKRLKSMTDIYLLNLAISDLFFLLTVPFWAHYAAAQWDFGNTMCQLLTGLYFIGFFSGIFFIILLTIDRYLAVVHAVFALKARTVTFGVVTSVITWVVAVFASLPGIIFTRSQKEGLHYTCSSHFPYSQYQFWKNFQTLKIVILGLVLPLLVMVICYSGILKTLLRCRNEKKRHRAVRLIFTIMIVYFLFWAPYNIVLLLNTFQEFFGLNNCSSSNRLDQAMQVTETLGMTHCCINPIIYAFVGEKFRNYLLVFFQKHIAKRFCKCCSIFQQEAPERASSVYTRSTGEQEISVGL

The Kd is the concentration at which binding is half-saturated. In assay [1], Peptide 3(7-9)[MCP-1], i.e, KQK yielded a % inhibition of migration induced by MCP-1 at 100 µM tripeptide of 95%, a % inhibition of migration induced by SDF1α at 100 µM tripeptide of 29%, an ED50 as inhibitor of MCP-1 induced THP-1 migration of 2 to 5 µM and an ED50 for inhibition of THP-1 migration induced by the one chemokine it is specific for (MCP-1) of 6 µM. The molecule also came in with an ED50 for inhibition of THP-1 migration versus MCP1 in [1] of 7 µM. Also, the Kd in [2] came to 15 µM. The Kd in [3] is 500 nM and 1000 nM. The Duffy selectivity in [4] was 22.3.
In assay [5], SYRRITSSK [Peptide 2(1-9)[MCP-1]] came in with a Kd of approximately 50 µM.

B1: peptide 2(1-15)[MCP-1] (peptide)
peptide: SYRRITSSKCPKEAV
notes: synthetic linear L-form peptide; also called Pep2[MCP1]; Pep2(1-15)[MCP1]
In the case of B1, the Kd is 100 µM in [6], 350 nM in [8], less than 500 nM in assay [9] and 2000 nM in assay [11]. This molecule came in with an ED50 for inhibition of chemokine-induced THP-1 migration in assay [7] of more than 100 µM. For the same molecule, in assay [7], the inhibition of chemokine-induced THP-1 migration at 100 µM came to 19%. The molecule further gave a promotion of THP-1 migration (agonist activity) in [7] of 10 µM. For the same molecule, in assay [10], the Duffy selectivity was 0.18 ratio.
Consider SYRRITSSKSPKEAV [Ser10 variant of peptide 2(1-15)[MCP-1]], for which, in assay [12], the Kd was 20 to 100 µM.
For SYRRITSSKCPKEAV (also: biotinylated, position not given here) [biotinylated peptide 2(1-15)[MCP-1]], the Kd in assay [13] worked out at 3000 nM; in [14] it was 1900 nM.
In the case of EICADPKQKWVQ [peptide 3(1-12)[MCP-1]], in [7], the % inhibition of THP-1 migration at 100 µM versus IL8 was 103%, the % inhibition of THP-1 migration at 100 µM versus MCP-1 came out at 112%, the % inhibition of THP-1 migration at 100 µM versus MIP1α was 99% and the % inhibition of THP-1 migration at 100 µM versus SDF-1α amounted to 107%. Moreover, in assay [7], the ED50 for inhibition of THP-1 migration versus IL8 was 14 µM, the ED50 for inhibition of THP-1 migration versus MCP-1 turned out to be 8 µM, the ED50 for inhibition of THP-1 migration versus MIP1α was 8 µM and the ED50 for inhibition of THP-1 migration versus SDF-1α came to 10 µM. Also, in assay [7], the average ED50 for inhibition of THP-1 migration induced by each of the chemokines turned out to be 10 µM; the inhibition of MCP-1 induced THP-1 migration at 100 µM, peptide incubated with the cells is more than 99%; the inhibition of MCP-1 induced THP-1 migration at 100 µM, peptide incubated with the chemokine came out at 17%. In assay [15], the Duffy selectivity was 1.
Take WVQ [Peptide 3(10-12)[MCP-1], i.e., WVQ]: in [16], the ED50 for inhibition of THP-1 migration versus IL8 was less than 1 µM, the ED50 for inhibition of THP-1 migration versus MCP1 was 8 µM, the ED50 for inhibition of THP-1 migration versus MIP1α was less than 1 µM and the ED50 for inhibition of THP-1 migration versus SDF1α was less than 1 µM. In [16], this molecule displayed an ED50 for inhibition of migration induced by IL-8 of 1 µM, an ED50 for inhibition of migration induced by MCP-1 of 8 µM, an ED50 for inhibition of migration induced by MIP1α of 7.5 µM and an ED50 for inhibition of migration induced by RANTES of 1.5 µM. Besides, in assay [16], the ED50 for inhibition of migration induced by SDF1α amounted to 2 µM and the average ED50 for inhibition of THP-1 migration induced by each of the chemokines came to 2 µM. Further, in assay [17], the Duffy selectivity came out at 10. Further, the Kd in assay [2] is 2 µM. For the same molecule, the Duffy selectivity in assay [18] is 24.8.
With VAEKPCKSSTIRRYS (not fully specified) [LRD peptide 2(1-15)[MCP-1]], the Kd was 25 µM in assay [19], less than 100 nM in assay [20], less than 100 nM in assay [21] and 18 µM in assay [23]. In addition, the fold decrease in Duffy binding against the LFL peptide in assay [22] amounted to 100 fold.
